The record followed here is article PMC5709738 (The EMBO Journal, 2017).

The target in data set [1] is T1, Ame1-Okp1 (K. lactis, full length) (Kluyveromyces lactis, UniProt Q6CUE5 1-292; Q6CJY0 1-383).
T1 construct: Ame1 of Kluyveromyces lactis; Okp1 of Kluyveromyces lactis; stands as the Ame1-Okp1 part of COMA; also called Okp1-Ame1; source: E. coli BL21 Rosetta 2(DE3)pLysS, co-expressed with Ctf19 and Mcm21 versions
T1 sequence (looked up) 1: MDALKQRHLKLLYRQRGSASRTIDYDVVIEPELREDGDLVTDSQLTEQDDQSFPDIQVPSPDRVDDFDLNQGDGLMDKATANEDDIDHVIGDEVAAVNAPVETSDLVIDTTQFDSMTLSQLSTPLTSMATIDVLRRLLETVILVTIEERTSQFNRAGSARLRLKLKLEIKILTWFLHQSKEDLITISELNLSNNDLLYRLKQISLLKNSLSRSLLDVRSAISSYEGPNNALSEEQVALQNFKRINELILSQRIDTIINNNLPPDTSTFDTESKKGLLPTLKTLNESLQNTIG
T1 sequence (looked up) 2: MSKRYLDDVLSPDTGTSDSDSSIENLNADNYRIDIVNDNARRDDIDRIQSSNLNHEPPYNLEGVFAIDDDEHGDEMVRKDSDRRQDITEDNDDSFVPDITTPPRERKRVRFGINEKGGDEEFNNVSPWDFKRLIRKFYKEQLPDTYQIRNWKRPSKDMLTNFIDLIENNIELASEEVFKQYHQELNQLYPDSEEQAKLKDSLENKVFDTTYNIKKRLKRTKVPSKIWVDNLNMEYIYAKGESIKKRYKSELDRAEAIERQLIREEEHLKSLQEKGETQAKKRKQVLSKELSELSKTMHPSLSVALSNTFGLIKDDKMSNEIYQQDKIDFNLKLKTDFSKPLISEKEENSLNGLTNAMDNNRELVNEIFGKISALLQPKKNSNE
Description: native MS; nanoflow spectra and tandem mode with collision-induced dissociation in the gas phase (argon); subassemblies stripped of subunits. The conditions noted are these: both partners purified.

The target in data set [2] is T2, Okp1 (K. lactis, full length) (Kluyveromyces lactis, UniProt Q6CJY0 1-383).
T2 construct: Okp1 (CENP-Q orthologue) of Kluyveromyces lactis; also called Okp1^CENP-Q; outer kinetochore protein 1; source: E. coli BL21 Rosetta 2(DE3)pLysS, co-expressed as COMA, purified
T2 sequence (looked up): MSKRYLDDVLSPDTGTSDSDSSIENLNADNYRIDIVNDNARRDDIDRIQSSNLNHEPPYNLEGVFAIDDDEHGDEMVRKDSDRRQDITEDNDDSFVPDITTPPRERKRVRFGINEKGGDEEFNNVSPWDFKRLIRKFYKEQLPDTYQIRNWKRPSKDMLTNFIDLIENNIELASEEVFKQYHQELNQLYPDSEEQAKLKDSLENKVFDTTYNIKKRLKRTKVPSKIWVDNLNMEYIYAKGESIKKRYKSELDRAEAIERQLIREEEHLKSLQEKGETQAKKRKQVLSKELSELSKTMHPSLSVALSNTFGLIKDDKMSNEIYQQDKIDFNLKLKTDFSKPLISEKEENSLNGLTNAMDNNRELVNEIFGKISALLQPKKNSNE
The description is as above. As to conditions: both partners purified.

For data set [3], the target named is T3, COMA (K. lactis, full length: Ame1, Ctf19, Mcm21, Okp1) (Kluyveromyces lactis, UniProt Q6CUE5 1-292; Q6CRN7 1-270; Q6CVQ9 1-293; Q6CJY0 1-383).
T3 construct: Ame1 of Kluyveromyces lactis; Ctf19 of Kluyveromyces lactis; Mcm21 of Kluyveromyces lactis; Okp1 of Kluyveromyces lactis; copies: + + +
T3 sequence (looked up) 1: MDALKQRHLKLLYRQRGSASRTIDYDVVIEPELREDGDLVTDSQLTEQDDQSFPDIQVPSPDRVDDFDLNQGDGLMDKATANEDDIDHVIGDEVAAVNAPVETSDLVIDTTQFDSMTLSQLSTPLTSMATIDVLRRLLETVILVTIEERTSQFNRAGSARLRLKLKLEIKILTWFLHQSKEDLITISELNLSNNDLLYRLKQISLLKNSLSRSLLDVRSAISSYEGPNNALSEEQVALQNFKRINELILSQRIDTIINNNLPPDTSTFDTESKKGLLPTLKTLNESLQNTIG
T3 sequence (looked up) 2: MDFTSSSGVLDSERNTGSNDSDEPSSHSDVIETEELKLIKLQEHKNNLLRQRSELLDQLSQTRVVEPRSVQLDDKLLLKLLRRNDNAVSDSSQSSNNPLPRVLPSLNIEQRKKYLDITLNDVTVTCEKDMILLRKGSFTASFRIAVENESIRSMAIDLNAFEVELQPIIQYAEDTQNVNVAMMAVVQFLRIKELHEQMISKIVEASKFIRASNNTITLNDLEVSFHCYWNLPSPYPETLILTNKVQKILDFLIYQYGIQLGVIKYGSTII
T3 sequence (looked up) 3: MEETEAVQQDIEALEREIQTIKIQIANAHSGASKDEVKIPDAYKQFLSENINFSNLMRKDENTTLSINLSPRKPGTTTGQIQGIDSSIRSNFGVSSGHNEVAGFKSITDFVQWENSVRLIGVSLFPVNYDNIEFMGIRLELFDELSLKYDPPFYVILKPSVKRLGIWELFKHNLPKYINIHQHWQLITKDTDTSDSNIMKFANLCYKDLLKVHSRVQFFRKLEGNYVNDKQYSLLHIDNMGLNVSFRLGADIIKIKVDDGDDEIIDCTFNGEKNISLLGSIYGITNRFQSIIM
T3 sequence (looked up) 4: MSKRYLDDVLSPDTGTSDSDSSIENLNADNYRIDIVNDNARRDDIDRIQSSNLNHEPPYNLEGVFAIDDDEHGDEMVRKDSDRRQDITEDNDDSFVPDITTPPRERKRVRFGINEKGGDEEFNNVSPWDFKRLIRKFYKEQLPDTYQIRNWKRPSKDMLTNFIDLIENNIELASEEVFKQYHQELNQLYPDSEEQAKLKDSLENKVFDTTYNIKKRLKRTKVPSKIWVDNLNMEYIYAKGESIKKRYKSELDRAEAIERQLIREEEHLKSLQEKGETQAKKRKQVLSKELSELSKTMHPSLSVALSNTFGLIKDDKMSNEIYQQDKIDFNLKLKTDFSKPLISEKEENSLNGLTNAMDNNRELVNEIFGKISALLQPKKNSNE
The data set is described as above. The conditions noted are these: both partners purified.

Data set [4] deals with the molecule itself. As to the kind of experiment: native MS; nanoflow electrospray of intact assemblies in 200 mM ammonium acetate pH 6.7-7.3 or 7.4; higher micromolar concentrations (COMA ~3 or ~6 uM; COMA-Nkp1-Nkp2 ~3 uM).
The target of data set [5] is T4, full-length Ctf19-Mcm21 (K. lactis) (Kluyveromyces lactis, UniProt Q6CRN7 1-270; Q6CVQ9 1-293).
T4 chain 1: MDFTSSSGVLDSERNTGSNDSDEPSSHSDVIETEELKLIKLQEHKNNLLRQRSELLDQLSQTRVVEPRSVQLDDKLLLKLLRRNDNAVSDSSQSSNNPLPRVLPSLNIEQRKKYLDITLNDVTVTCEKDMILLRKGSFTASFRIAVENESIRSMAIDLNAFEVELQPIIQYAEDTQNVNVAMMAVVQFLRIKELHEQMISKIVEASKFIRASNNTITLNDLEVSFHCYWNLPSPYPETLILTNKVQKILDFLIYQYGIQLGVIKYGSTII
T4 chain 2: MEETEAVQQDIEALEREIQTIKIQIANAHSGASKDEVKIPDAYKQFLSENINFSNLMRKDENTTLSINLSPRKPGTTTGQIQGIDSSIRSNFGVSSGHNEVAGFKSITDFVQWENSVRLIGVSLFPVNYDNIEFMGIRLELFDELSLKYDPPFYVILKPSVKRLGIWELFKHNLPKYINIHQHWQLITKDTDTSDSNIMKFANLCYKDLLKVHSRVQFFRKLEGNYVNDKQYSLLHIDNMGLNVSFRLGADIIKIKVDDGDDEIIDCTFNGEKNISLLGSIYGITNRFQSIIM
As to the kind of experiment: MST.

Data set [6] deals with T5, full-length Ctf19-Mcm21 (K. lactis) (Kluyveromyces lactis, UniProt Q6CRN7 1-270; Q6CVQ9 1-293).
T5 construct: Ctf19 of Kluyveromyces lactis; Mcm21 of Kluyveromyces lactis; for microscale thermophoresis it was labelled on lysine side chains with the red dye NT-647-NHS; also stands for the Ctf19-Mcm21 subassembly of COMA in nanoflow mass spectra; source: E. coli BL21 Rosetta 2(DE3)pLysS, co-expressed, purified
T5 sequence (looked up) 1: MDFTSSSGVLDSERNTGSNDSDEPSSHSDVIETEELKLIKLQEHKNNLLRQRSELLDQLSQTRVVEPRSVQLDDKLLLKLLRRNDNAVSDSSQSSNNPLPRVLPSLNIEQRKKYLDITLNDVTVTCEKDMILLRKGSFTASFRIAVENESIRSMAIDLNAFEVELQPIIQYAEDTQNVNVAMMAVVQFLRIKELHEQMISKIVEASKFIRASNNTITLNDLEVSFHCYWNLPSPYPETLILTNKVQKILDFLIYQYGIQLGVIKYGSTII
T5 sequence (looked up) 2: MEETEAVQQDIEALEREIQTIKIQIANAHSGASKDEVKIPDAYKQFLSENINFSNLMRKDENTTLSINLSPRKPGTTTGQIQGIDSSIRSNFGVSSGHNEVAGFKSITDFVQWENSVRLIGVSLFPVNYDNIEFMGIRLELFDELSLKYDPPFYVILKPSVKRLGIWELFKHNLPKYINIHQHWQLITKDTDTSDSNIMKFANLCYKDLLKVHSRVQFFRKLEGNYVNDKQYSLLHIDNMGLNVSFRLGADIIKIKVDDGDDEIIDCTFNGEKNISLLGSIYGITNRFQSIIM
As to the kind of experiment: MST; Ctf19-Mcm21 labelled with NT-647-NHS on lysines, ~27 nM; dilution series of peptide; 22-25°C; ITC/MST buffer; three dilution series. As to conditions: both partners purified.

B1: Nkp1 (K. lactis) (natural protein, Kluyveromyces lactis, UniProt Q6CPR4 1-210, looked up)
chain: MDLESEIIQLVRQNIRPKFPSLNDEQQARLDNALKYDVNYDILKKELVEYIDDWKRNEYYDVLTNIGDLQRLDLGNMLNGDGVSFPKLHSDLANLPRFRLIDNENEMDQSLLHKYDSLRTRLIEKCRAIELIRSATNTDVNYQDINSMLSVVELRQWRDEIQMEWKELAQNLELILKTWPDLTEEKRSKLLQLIDSSSLKSILHIKDNIE
notes: Nkp1 of Kluyveromyces lactis; also called non-essential kinetochore protein 1; HisNkp1; source: E. coli BL21 Rosetta 2(DE3)pLysS, purified
For B1, the binding result in data set [1], in data set [2] and in data set [3] was “binds” throughout.

B2: COMA-Nkp1-Nkp2 (K. lactis, full length) (complex, Kluyveromyces lactis)
chain 1: MDALKQRHLKLLYRQRGSASRTIDYDVVIEPELREDGDLVTDSQLTEQDDQSFPDIQVPSPDRVDDFDLNQGDGLMDKATANEDDIDHVIGDEVAAVNAPVETSDLVIDTTQFDSMTLSQLSTPLTSMATIDVLRRLLETVILVTIEERTSQFNRAGSARLRLKLKLEIKILTWFLHQSKEDLITISELNLSNNDLLYRLKQISLLKNSLSRSLLDVRSAISSYEGPNNALSEEQVALQNFKRINELILSQRIDTIINNNLPPDTSTFDTESKKGLLPTLKTLNESLQNTIG
chain 2: MDFTSSSGVLDSERNTGSNDSDEPSSHSDVIETEELKLIKLQEHKNNLLRQRSELLDQLSQTRVVEPRSVQLDDKLLLKLLRRNDNAVSDSSQSSNNPLPRVLPSLNIEQRKKYLDITLNDVTVTCEKDMILLRKGSFTASFRIAVENESIRSMAIDLNAFEVELQPIIQYAEDTQNVNVAMMAVVQFLRIKELHEQMISKIVEASKFIRASNNTITLNDLEVSFHCYWNLPSPYPETLILTNKVQKILDFLIYQYGIQLGVIKYGSTII
chain 3: MEETEAVQQDIEALEREIQTIKIQIANAHSGASKDEVKIPDAYKQFLSENINFSNLMRKDENTTLSINLSPRKPGTTTGQIQGIDSSIRSNFGVSSGHNEVAGFKSITDFVQWENSVRLIGVSLFPVNYDNIEFMGIRLELFDELSLKYDPPFYVILKPSVKRLGIWELFKHNLPKYINIHQHWQLITKDTDTSDSNIMKFANLCYKDLLKVHSRVQFFRKLEGNYVNDKQYSLLHIDNMGLNVSFRLGADIIKIKVDDGDDEIIDCTFNGEKNISLLGSIYGITNRFQSIIM
chain 4: MSKRYLDDVLSPDTGTSDSDSSIENLNADNYRIDIVNDNARRDDIDRIQSSNLNHEPPYNLEGVFAIDDDEHGDEMVRKDSDRRQDITEDNDDSFVPDITTPPRERKRVRFGINEKGGDEEFNNVSPWDFKRLIRKFYKEQLPDTYQIRNWKRPSKDMLTNFIDLIENNIELASEEVFKQYHQELNQLYPDSEEQAKLKDSLENKVFDTTYNIKKRLKRTKVPSKIWVDNLNMEYIYAKGESIKKRYKSELDRAEAIERQLIREEEHLKSLQEKGETQAKKRKQVLSKELSELSKTMHPSLSVALSNTFGLIKDDKMSNEIYQQDKIDFNLKLKTDFSKPLISEKEENSLNGLTNAMDNNRELVNEIFGKISALLQPKKNSNE
chain 5: MDLESEIIQLVRQNIRPKFPSLNDEQQARLDNALKYDVNYDILKKELVEYIDDWKRNEYYDVLTNIGDLQRLDLGNMLNGDGVSFPKLHSDLANLPRFRLIDNENEMDQSLLHKYDSLRTRLIEKCRAIELIRSATNTDVNYQDINSMLSVVELRQWRDEIQMEWKELAQNLELILKTWPDLTEEKRSKLLQLIDSSSLKSILHIKDNIE
chain 6: MLHEVLYKHLDGILVSRLYTEDQFVDLFSRTIPESNTVIASQLYKSYEENDQRIIEKIDKLIDNKLSLIRVELEREQIEDSISLEEVNKLLHSIDDMLQQHLNQLNIELDNKNTKLLKYAMELSDIEAIDTSMYDNVAKLITDMETNQPSS
notes: Ame1 of Kluyveromyces lactis; Ctf19 of Kluyveromyces lactis; Mcm21 of Kluyveromyces lactis; N-terminal SNA residual; Okp1 of Kluyveromyces lactis; Nkp1 of Kluyveromyces lactis; Nkp2 of Kluyveromyces lactis; source: E. coli BL21 Rosetta 2(DE3)pLysS, reconstituted, purified (SEC); not shown: polyhistidine, N-terminal, cleaved; copies: + + + + +
With B2, the “stoichiometry N” value in data set [4] is 2.

B3: D328A-F329A (peptide)
chain: SNEIYQQDKIAANLKLKTDF
modifications: synthetic peptide; terminal chemistry not stated
As for B3, the Kd in data set [5] was 64 µM.

B4: F329A (peptide)
chain: SNEIYQQDKIDANLKLKTDF
modifications: synthetic peptide; terminal chemistry not stated
For B4, the Kd in data set [5] turned out to be 25.3 µM.

B5: Okp1 peptide variant N330A (peptide, UniProt Q6CJY0 318-337, looked up)
peptide: SNEIYQQDKIDFALKLKTDF
notes: source: synthetic peptide (Protein Chemistry core facility, IMP, Vienna)
Take B5: in data set [6], the binding result is listed as “binds”. The same molecule yielded a Kd in data set [5] of 5.51 µM.
